For test [1], the target named is HLA-B*07:02. Briefly: IEDB peptide-MHC binding, purified MHC/competitive/radioactivity; filed as Kd, often an IC50 or EC50 that approximates it; ≥ and ≤ were set here for values at or beyond the usual limits of such assays. The conditions noted are these: source organism: Vaccinia virus WR.
Test [2] concerns the target HLA-A*11:01. The description is as above. The conditions noted are these: source organism: Vaccinia virus WR.

On to RPSTRNFFEL, for which the Kd in test [1] came out at 11 nM.
In the case of AFEFINSLLK, the Kd in test [2] turned out to be 470 nM.
Take LPRPDTRHL: in test [1], the Kd was found to be 14 nM.

For orientation: Kd means a measure of binding affinity in units of concentration.

The values above are taken from the Immune Epitope Database (IEDB).
